Experimental data: patent US20140341938A1

Target: SIINFEKL:K^b complex (SIINFEKL complexed to H-2K^b) on LK^b cells (murine) (UniProt P01901)
Test: cell-based or functional assay

UniProt P01901, sequence (P01901 22-369, one chain of several): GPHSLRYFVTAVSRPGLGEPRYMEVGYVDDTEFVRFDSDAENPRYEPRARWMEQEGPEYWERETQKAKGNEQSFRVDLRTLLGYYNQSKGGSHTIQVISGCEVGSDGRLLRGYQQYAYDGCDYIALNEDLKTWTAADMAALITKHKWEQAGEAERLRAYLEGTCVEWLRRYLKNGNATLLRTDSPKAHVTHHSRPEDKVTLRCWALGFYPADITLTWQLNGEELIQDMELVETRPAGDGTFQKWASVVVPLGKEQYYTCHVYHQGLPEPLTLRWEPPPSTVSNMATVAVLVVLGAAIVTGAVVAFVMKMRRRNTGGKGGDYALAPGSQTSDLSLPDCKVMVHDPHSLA

β-galactosidase measured with a luminescent substrate after overnight co-incubation of SIINFEKL-pulsed LK^b cells with B3Z; limit of detection given as the peptide pulse concentration: 5 ng/mL
Sequence: T cell receptor of the SIINFEKL:Kb-specific T hybridoma B3Z (TCR)
